Source: article PMC5895705, “Activation of the DnaK-ClpB Complex is Regulated by the Properties of the Bound Substrate” (Scientific Reports, 2018)

Target: T1, ClpB, wild type (E. coli, UniProt P63284 1-857)
T1 construct: ClpB, E. coli, wild type; also called wt ClpB; wt-ClpB; source: E. coli BB4561, purified as previously described
Assay: co-sedimentation; G6PDH50 aggregates (1 μM) incubated 10 min at 30 °C in refolding buffer with DnaJ, 3.5 μM wt DnaK or variant, with or without 5 μM wt or mutant ClpB, 3 mM ATP with regenerating system, no GrpE; 122,000 x g, 40 min, 4 °C; pellets on SDS-PAGE or NuPAGE, densitometry, controls with native G6PDH subtracted
Settings: both partners purified

- binding result: binds
B1: DnaK_(1–507) (domain or fragment)
chain: not shown
notes: DnaK, E. coli, residues 1-507 (lid deleted); also called Δlid; Δlid-DnaK
